The results in this text go back to US20050209137A1 (published 2005).

The labels stand for the following.
B1: chicken leptin (ligand, UniProt O42164 19-163, looked up)
chain: VPCQIFQDDTKTLIKTIVTRINDISHTSVSAKQRVTGLDFIPGLHPILSLSKMDQTLAVYQQVLTSLPSQNVLQIANDLENLRDLLHLLAFSKSCSLPQTSGLQKPESLDGVLEASLYSTEVVALSRLQGSLQDILQQLDISPEC
notes: also called chLeptin; ChLeptin
B2: ovine leptin (fraction SP) (ligand, UniProt Q28603 1-146, looked up)
chain: VPIRKVQDDTKTLIKTIVTRINDISHTQSVSSKQRVTGLDFIPGLHPLLSLSKMDQTLAIYQQILASLPSRNVIQISNDLENLRDLLHLLAASKSCPLPQVRALESLESLGVVLEASLYSTEVVALSRLQGSLQDMLRQLDLSPGC
B3: recombinant chicken leptin receptor binding domain (chLBD), amino acids 419-624 of the chicken leptin receptor (receptor)
chain: MAVDVNINIKCETDGYLTKMTCRWSANPNALLLGSSLQLRYHRSKIYCSNFPSTPPESEVKECHFQRNHSYECTFQPVFLLSGYTMWIELKHSLGTLESSPTCVVPADVVKPLPPSNIKAEITRNDGLLNVSWTNPVFTNDDLKFQIRYAVNREELTWELYEVLSVPTRSAVIEVQLCVEYIVQIRCRALDGLGYWSNWSRSAYAAVKD
notes: also called CLBD

Assay [1] has as its target T1, recombinant human leptin receptor leptin-binding domain (LBD), amino acids 428-635 of the human leptin … (human, UniProt P48357 428-635).
T1 construct: also called hLBD; human LBD
T1 sequence: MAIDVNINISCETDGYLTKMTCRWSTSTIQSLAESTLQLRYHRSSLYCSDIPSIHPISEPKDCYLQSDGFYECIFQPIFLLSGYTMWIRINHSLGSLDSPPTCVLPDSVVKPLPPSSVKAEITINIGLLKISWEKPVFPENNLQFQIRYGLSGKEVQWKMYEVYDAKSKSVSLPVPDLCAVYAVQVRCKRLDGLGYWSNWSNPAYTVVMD
The experiment in a line: SPR. For orientation: In SPR one partner is held on a chip, and binding of the other changes the refractive index at the surface.

For assay [2], the target named is long form of human leptin receptor, stably transfected in BAF/3 cells (cell homogenate) (human) (UniProt P48357). Briefly: competition with 125I-hLEP, homogenate of BAF/3 cells with long-form human leptin receptor.
In assay [3] the target is B3. The experiment in a line: inhibition of binding of 125I-hLep to chLBD by unlabeled leptin; the curve only falls to about 66 % at the highest concentration shown (about 10^-4.2 M), the printed value lies beyond the range. On the procedure: Binding Assays—Radiolabeled human ¹²⁵I-leptin served as a ligand, and other (human, ovine, and chicken) nonlabeled leptins served as competitors. The experiments were conducted using either recombinant LBD or homogenates of BAF/3 cells stably transfected with the long form of hLEP receptor. In the latter case, the cells were cultured in Dulbecco's modified Eagle's medium supplemented with 5% fetal calf serum in the presence of IL-3 to minimize leptin-receptor down-regulation until a concentration of 10⁶ cells/ml was reached. Then the cells were spun and stored at −70° C. […] Each tube contained 150 or 200 μl of reaction buffer in the case of the assay with the cells or recombinant LBD, respectively, 100 μl of ¹²⁵I-hLEP (100,000 cpm for cells or 180,000 cpm for binding domain assays), and 100 μl of different leptin solutions (providing 0-5000 ng/tube) in the reaction buffer, and the reaction was started by addition of 150 μl of cell homogenate or 100 μl of LBD (20 ng). The tubes were incubated for 24 h at room temperature. Then the leptin receptor complex was precipitated by adding 250 μl of 1% (w/v) bovine immunoglobulin and 500 μl of 20% (w/v) polyethylene glycol. After thorough mixing, the tubes were incubated for 20 min at 4° C. and centrifuged at 12,000×g for 15 min at 4° C. Then supernatant was carefully aspirated, and the precipitates were counted in a Kontron ?-counter. […]

Assay [4] deals with T2, long form of human leptin receptor, stably transfected in BAF/3 cells (cell homogenate) (human, UniProt P48357 22-1165).
T2 construct: whole, on cells; also called WT in BAF/3 cell homogenate; full-size membrane-embedded leptin receptor
T2 sequence (looked up): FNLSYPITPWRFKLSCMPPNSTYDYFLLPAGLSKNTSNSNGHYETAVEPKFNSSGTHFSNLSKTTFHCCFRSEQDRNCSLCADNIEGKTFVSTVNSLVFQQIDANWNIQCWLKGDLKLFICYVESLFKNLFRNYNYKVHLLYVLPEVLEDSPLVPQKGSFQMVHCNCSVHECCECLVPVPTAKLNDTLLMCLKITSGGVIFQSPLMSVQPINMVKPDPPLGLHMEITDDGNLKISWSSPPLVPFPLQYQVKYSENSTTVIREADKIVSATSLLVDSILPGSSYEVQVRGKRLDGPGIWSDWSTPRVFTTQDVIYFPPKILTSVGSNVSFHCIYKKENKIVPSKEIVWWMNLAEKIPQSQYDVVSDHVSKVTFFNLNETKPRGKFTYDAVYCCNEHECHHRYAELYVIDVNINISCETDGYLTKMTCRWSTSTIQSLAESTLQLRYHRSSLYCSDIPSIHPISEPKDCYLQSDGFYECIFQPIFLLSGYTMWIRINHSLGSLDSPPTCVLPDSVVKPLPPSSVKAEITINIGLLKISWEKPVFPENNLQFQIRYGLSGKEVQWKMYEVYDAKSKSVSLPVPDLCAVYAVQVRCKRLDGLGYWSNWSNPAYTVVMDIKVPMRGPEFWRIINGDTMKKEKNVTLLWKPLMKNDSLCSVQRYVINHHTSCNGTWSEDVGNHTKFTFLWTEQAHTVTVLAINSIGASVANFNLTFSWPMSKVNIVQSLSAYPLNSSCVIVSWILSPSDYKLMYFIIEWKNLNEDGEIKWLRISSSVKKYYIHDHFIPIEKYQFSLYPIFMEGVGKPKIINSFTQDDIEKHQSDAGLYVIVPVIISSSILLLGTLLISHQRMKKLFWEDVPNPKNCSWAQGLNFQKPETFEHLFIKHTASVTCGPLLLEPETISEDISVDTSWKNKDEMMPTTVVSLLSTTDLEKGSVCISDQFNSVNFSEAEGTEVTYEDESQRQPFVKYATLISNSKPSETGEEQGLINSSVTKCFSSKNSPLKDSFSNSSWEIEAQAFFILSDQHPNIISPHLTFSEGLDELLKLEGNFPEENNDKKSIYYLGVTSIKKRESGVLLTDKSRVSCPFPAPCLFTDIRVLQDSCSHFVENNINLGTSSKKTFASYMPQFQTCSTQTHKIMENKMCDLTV
Briefly: competition of unlabeled leptin with 125I-human leptin for binding to homogenate of BAF/3 cells transfected with the long form of human leptin receptor. The procedure:
(§1) The specific binding (%) in experiments performed with human, ovine, and chicken leptins and their mutants were, respectively, 7.3% in A, and 8.1% in B, and the nonspecific binding was respectively, 5.4 and 14%. All values for specific binding were normalized, and the solid lines and the IC₅₀ values were calculated using the PRIZMA curve-fitting program (Author, A. (1994) GraphPad Prism™, Version 2.0, GraphPad Software Inc., San Diego, Calif.).
(§2) Binding Assays—Radiolabeled human ¹²⁵I-leptin served as a ligand, and other (human, ovine, and chicken) nonlabeled leptins served as competitors. The experiments were conducted using either recombinant LBD or homogenates of BAF/3 cells stably transfected with the long form of hLEP receptor. In the latter case, the cells were cultured in Dulbecco's modified Eagle's medium supplemented with 5% fetal calf serum in the presence of IL-3 to minimize leptin-receptor down-regulation until a concentration of 10⁶ cells/ml was reached. Then the cells were spun and stored at −70° C. […] Then supernatant was carefully aspirated, and the precipitates were counted in a Kontron ?-counter.

Assay [5] concerns the target T1, recombinant human leptin receptor …. Briefly: competition of unlabeled leptin with 125I-human leptin for binding to soluble recombinant LBD, precipitation of the complex and counting. On the procedure: as §1, §2
For assay [6], the target named is T3, recombinant human leptin (human, UniProt P41159 22-167).
T3 construct: mature; also called hLEP; hLeptin
The experiment in a line: Scatchard plot (bound/free against bound) of the binding of 125I-hLep to chLBD, inset.

The target of assay [7] is B2. The experiment in a line: gel filtration of hormone:chLBD mixtures at various molar ratios, retention times printed over the peaks. (Size exclusion chromatography separates by hydrodynamic size, large species first.)
The assay “chicken leptin” deals with B1. Briefly: SPR.
For assay [8], the target named is T3, recombinant human leptin. Briefly: SPR.

T3 sequence (P41159 22-167): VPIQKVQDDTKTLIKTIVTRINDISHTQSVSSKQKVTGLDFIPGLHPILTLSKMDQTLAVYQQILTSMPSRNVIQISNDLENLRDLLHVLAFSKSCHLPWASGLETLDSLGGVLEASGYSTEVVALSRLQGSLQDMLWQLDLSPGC

In the case of B1, in assay [1], the equilibrium dissociation constant (Kd) – broadly, the equilibrium constant for the complex coming apart – was 380 nM; the koff (as a rule, the rate constant with which the complex falls apart) amounted to 0.0052 s⁻¹; the kon – broadly, the second-order rate constant of association – came to 13500 M⁻¹ s⁻¹. For the same molecule, the fold lower capacity to displace than hLEP in assay [2] is 20 fold. The IC50 (usually the concentration that inhibits the measured activity by half) in [3] stood at 88000 nM.

As for B2, the results for the “IC50 (read off the curve)” value in [4] and in assay [5] were approximately 0.6 nM and approximately 8 nM, respectively.

For the molecule B3, the Kd in the assay with recombinant human leptin [6] was determined as 3.9 nM. Further, the binding result in [7] is “binds”. Moreover, in the assay with chicken leptin, binding was put at a Kd of 1300 nM, the koff stood at 0.076 s⁻¹ and the kon turned out to be 58300 M⁻¹ s⁻¹. For the same molecule, in the assay with recombinant human leptin [8], the Kd is 78.5 nM, the koff worked out at 0.0143 s⁻¹ and the kon came to 183000 M⁻¹ s⁻¹.
